Measured values published in patent US20040014026A1 (YISSUM RESEARCH DEVELOPMENT COMPANY OF THE HEBREW …, published 2004).

B1: WDK2 (Flag-WD with Lys 326 mutated to Ala) (other, UniProt Q9Y297 229-605, looked up, not shown: small tags and cut ends)
chain: IERMVRTDSLWRGLAERRGWGQYLFKNKPPDGNAPPNSFYRALYPKIIQDIETIESNWRCGRHSLQRIHCRSETSKGVYCLQYDDQKIVSGLRDNTIAIWDKNTLECKRILTGHTGSVLCLQYDERVIITGSSDSTVRVWDVNTGEMLNTLIHHCEAVLHLRFNNGMMVTCSKDRSIAVWDMASPTDITLRRVLVGHRAAVNVVDFDDKYIVSASGDRTIKVWNTSTCEFVRTLNGHKRGIACLQYRDRLVVSGSSDNTIRLWDIECGACLRVLEGHEELVRCIRFDNKRIVSGAYDGKIKVWDLVAALDPRAPAGTLCLRTLVEHSGRVFRLQFDEFQIVSSSHDDTILIWDFLNDPAAQAEPPRSPSRTYTYISR
notes: domain: WD fragment (F-Box deleted E3RS); also called Flag-WD mutant WDK2; mutant WD

Experiments:
[1] = biological target: IKK-phosphorylated IκBα (pIκBα) (UniProt P25963); assay: pIκBα binding after heat shock, data not shown
[2] = biological target: T1, hnRNP-U (endogenous protein of 293/293T cells) (UniProt Q00839-2 2-806, limits assumed); assay: anti-Flag immunopurification, Flag-peptide elution, Coomassie
T1 construct: also called p120; 120 kD protein
Description: To detect specifically dissociated proteins, immunobeads were incubated with Flag peptide (FIG. 3B, lanes 1,4,7), pp10 (FIG. 3B, lanes 2,5,8), p10S/E (FIG. 3B, lanes 3,6,9) and the post-slurry fractions were separated by SDS-PAGE.

HA-hnRNP-U = biological target: T2, HA-hnRNP-U (UniProt Q00839-2 1-806, limits assumed); assay: anti-p65 immunoprecipitation from 293T cells with MEKK and IKK2, anti-HA Western blot
T2 construct: not shown: HA tag

[3] = biological target: T1, hnRNP-U (endogenous protein of 293/293T …); assay: pIκBα incubated with anti-hnRNP-U immunobeads carrying the hnRNP-U/E3RS complex, Western blot
Description: (§1) IκBα (FIG. 4D, lanes 1,3,4) and IKK phosphorylated IκBα (pIκBα; FIG. 4D, lanes 2,5-7) were incubated with the immunobeads, after which, both the immunobeads (slurry (S); FIG. 4D, lanes 1-3,5) and the post-slurry fractions (PS; FIG. 4D, lanes 4,6) were analyzed by Western blot directly, or after immunoprecipitation of the post-slurry fraction (same as in FIG. 4D, lane 6) with anti-Flag beads (FIG. 4D, lane 7).

[4] = biological target: B1; assay: pull-down of 35S-labelled pIκBα on anti-Flag immunobeads, phosphorimaging
Excerpt: The beads were washed extensively and associated proteins analyzed by SDS-PAGE and phosphorimaging.

[5] = biological target: T1, hnRNP-U (endogenous protein of 293/293T …); assay: IκBα incubated with anti-hnRNP-U immunobeads carrying the hnRNP-U/E3RS complex, Western blot
Description: as §1

[6] = biological target: T1, hnRNP-U (endogenous protein of 293/293T …); assay: anti-Flag immunopurification from 293T cells, SDS-PAGE Coomassie
Description: (§2) The cells were lysed and the extracts immunoprecipitated, using agarose-conjugated anti-Flag (lanes 1-5) and anti-HA (lane 6) antibodies. Immunoprecipitated proteins were analyzed by SDS-PAGE and Coomassie Brilliant Blue staining.

[7] = biological target: T1, hnRNP-U (endogenous protein of 293/293T …); assay: anti-Flag immunoprecipitation from 293T cells, Coomassie and Western blot
Description: as §2

[8] = biological target: T1, hnRNP-U (endogenous protein of 293/293T …); assay: anti-Flag immunoprecipitation from 293T cells, Western blot with monoclonal anti-hnRNP-U (also Coomassie, FIG. 2A lane 3)
Description: Cells were harvested 24-48 h after transfection, and extracted by suspension in 50 mM Tris pH 7.6, 1 mM dithiothreitol (DTT), 0.1% Nonidet P-40 (NP-40), 1 mM phenyl methyl sulfonyl fluoride, 1% Aprotinin and vortexing for 20 sec. Cell extracts were collected following centrifugation at 20,000 g for 30 min at 4° C. Cell extract (500 μg protein) was adjusted to 150 mM NaCl prior to immunoprecipitation. Flag-tagged proteins were immunoprecipitated with 2 μl of the anti-Flag immunobeads. Immunoprecipitation was for 2 h at 4° C. and the immunobeads were washed 4× in 300 mM NaCl, 1 mM DTT, 0.1% NP-40 and 50 mM Tris, pH 7.6. Flag-tagged proteins were eluted from the Flag immunobeads with 1 mg/ml of Flag peptide in 50 mM Tris, pH 7.6 for 30 min at 25° C. hnRNP-U was immunoprecipitated using 0.2-0.5 μl of the 3G6 antibody and 2-5%1 of Protein G immunobeads.
as §2

Molecule: E3K2 (Flag-E3RS with the K2 residue Lys 326 mutated to Ala) (from UniProt Q9Y297 1-605)
- loss of pIκBα binding capacity after heat shock [1]: 50 to 60%

Molecule: B1
- binding result [2]: no binding

B2: IKK-phosphorylated IκBα (pIκBα) (other, UniProt P25963 1-317, looked up)
chain: MFQAAERPQEWAMEGPRDGLKKERLLDDRHDSGLDSMKDEEYEQMVKELQEIRLEPQEVPRGSEPWKQQLTEDGDSFLHLAIIHEEKALTMEVIRQVKGDLAFLNFQNNLQQTPLHLAVITNQPEIAEALLGAGCDPELRDFRGNTPLHLACEQGCLASVGVLTQSCTTPHLHSILKATNYNGHTCLHLASIHGYLGIVELLVSLGADVNAQEPCNGRTALHLAVDLQNPDLVSLLLKCGADVNRVTYQGYSPYQLTWGRPSTRIQQQLGQLTLENLQMLPESEDEESYDTESEFTEFTEDELPYDDCVFGGQRLTL
modifications: phosphorylated by IKK2 (sites not given); 35S-labelled in the in vitro assays
notes: in the other assays it was phosphorylated in vitro by IKK2
- binding result (HA-hnRNP-U): no binding
- binding result [3]: no binding
- binding result [4]: no binding

B3: non-phosphorylated IκBα (other, UniProt P25963 1-317, looked up)
chain: MFQAAERPQEWAMEGPRDGLKKERLLDDRHDSGLDSMKDEEYEQMVKELQEIRLEPQEVPRGSEPWKQQLTEDGDSFLHLAIIHEEKALTMEVIRQVKGDLAFLNFQNNLQQTPLHLAVITNQPEIAEALLGAGCDPELRDFRGNTPLHLACEQGCLASVGVLTQSCTTPHLHSILKATNYNGHTCLHLASIHGYLGIVELLVSLGADVNAQEPCNGRTALHLAVDLQNPDLVSLLLKCGADVNRVTYQGYSPYQLTWGRPSTRIQQQLGQLTLENLQMLPESEDEESYDTESEFTEFTEDELPYDDCVFGGQRLTL
- binding result [5]: no binding

B4: Flag-tagged E3RS/βTrCP (Flag-E3RS) (other, UniProt Q9Y297 1-605, looked up, not shown: small tags and cut ends)
chain: MDPAEAVLQEKALKFMCSMPRSLWLGCSSLADSMPSLRCLYNPGTGALTAFQNSSEREDCNNGEPPRKIIPEKNSLRQTYNSCARLCLNQETVCLASTAMKTENCVAKTKLANGTSSMIVPKQRKLSASYEKEKELCVKYFEQWSESDQVEFVEHLISQMCHYQHGHINSYLKPMLQRDFITALPARGLDHIAENILSYLDAKSLCAAELVCKEWYRVTSDGMLWKKLIERMVRTDSLWRGLAERRGWGQYLFKNKPPDGNAPPNSFYRALYPKIIQDIETIESNWRCGRHSLQRIHCRSETSKGVYCLQYDDQKIVSGLRDNTIKIWDKNTLECKRILTGHTGSVLCLQYDERVIITGSSDSTVRVWDVNTGEMLNTLIHHCEAVLHLRFNNGMMVTCSKDRSIAVWDMASPTDITLRRVLVGHRAAVNVVDFDDKYIVSASGDRTIKVWNTSTCEFVRTLNGHKRGIACLQYRDRLVVSGSSDNTIRLWDIECGACLRVLEGHEELVRCIRFDNKRIVSGAYDGKIKVWDLVAALDPRAPAGTLCLRTLVEHSGRVFRLQFDEFQIVSSSHDDTILIWDFLNDPAAQAEPPRSPSRTYTYISR
notes: F-box protein, receptor subunit of the IκB-E3; Immunopurified material may carry endogenous Skp1/Cul1; also called β-TrCP/E3RS; WT E3RS
- Coomassie staining ratio p120/E3RS [6]: 1.5 ratio p120:E3RS

B5: Flag-F-Box (F-Box fragment of E3RS) (other, UniProt Q9Y297 1-228, looked up, not shown: small tags and cut ends)
chain: MDPAEAVLQEKALKFMCSMPRSLWLGCSSLADSMPSLRCLYNPGTGALTAFQNSSEREDCNNGEPPRKIIPEKNSLRQTYNSCARLCLNQETVCLASTAMKTENCVAKTKLANGTSSMIVPKQRKLSASYEKEKELCVKYFEQWSESDQVEFVEHLISQMCHYQHGHINSYLKPMLQRDFITALPARGLDHIAENILSYLDAKSLCAAELVCKEWYRVTSDGMLWKKL
notes: domain: F-Box fragment
- binding result [7]: no binding

B6: Flag-HOS/β-TrCP2 (other, human, UniProt Q9UKB1 1-542, looked up, not shown: small tags and cut ends)
chain: MEPDSVIEDKTIELMCSVPRSLWLGCANLVESMCALSCLQSMPSVRCLQISNGTSSVIVSRKRPSEGNYQKEKDLCIKYFDQWSESDQVEFVEHLISRMCHYQHGHINSYLKPMLQRDFITALPEQGLDHIAENILSYLDARSLCAAELVCKEWQRVISEGMLWKKLIERMVRTDPLWKGLSERRGWDQYLFKNRPTDGPPNSFYRSLYPKIIQDIETIESNWRCGRHNLQRIQCRSENSKGVYCLQYDDEKIISGLRDNSIKIWDKTSLECLKVLTGHTGSVLCLQYDERVIVTGSSDSTVRVWDVNTGEVLNTLIHHNEAVLHLRFSNGLMVTCSKDRSIAVWDMASATDITLRRVLVGHRAAVNVVDFDDKYIVSASGDRTIKVWSTSTCEFVRTLNGHKRGIACLQYRDRLVVSGSSDNTIRLWDIECGACLRVLEGHEELVRCIRFDNKRIVSGAYDGKIKVWDLQAALDPRAPASTLCLRTLVEHSGRVFRLQFDEFQIISSSHDDTILIWDFLNVPPSAQNETRSPSRTYTYISR
notes: also called β-TrCP2/HOS
- binding result [8]: no binding
